# Source: US20230272056A1 (Merck Sharp & Dohme, published 2023)
# Residue numbers refer to the chain shown, from its start. Names may count otherwise. “And” between values parts separate entries of the source, which are not always exact repeats. Equal entries are not always repeated. Where two headings read alike, the source gives them in different places.
# B1: 20E6 Fab (80BGJ/85BIT) (Fab, V domains shown)
# VH: EVQLVQSGAEVKKPGASVKVSCKASGYTFTSYWMHWVRQAPGQGLEWMGRIDPQSGGIKYAQKFQGRATLTVDTSTSTAYMELSRLRSDDTAVYYCARWDYGGYFDVWGQGTLVTVSS
# VL: DIQMTQSPSSLSASVGDRVTITCRASQDITNYLNWYQQKPGKAVKLLIYYTSRLHSGVPSRFSGSGSGTDYTLTISSLQPEDFATYFCQQGDTLPWTFGQGTKLEIKR
# notes: also called 20E6 (80BGJ); 20E6 (85BIT)
# B2: 69BJN (Fab, V domains shown)
# VH: B1 VH with W33D, I58T
# VL: B1 VL with T30Y, R53V
# notes: also called VH W33D I58T / VL T30Y R53V (69BJN)
# Tests used:
# [1] = target: T1, human LAP-TGFB1 Fc fusion (human); assay: SPR pH 7.4, antigen-Fc captured, Fab analyte
# T1 construct: also called human LAP-TGFβ1-Fc; human LAP-TGFβ-Fc isoform 1
# [2] = target: T1, human LAP-TGFB1 Fc fusion; assay: SPR pH 7.4, antigen-Fc captured, Fab analyte; remark: listed apart in the source
# [3] = target: T1, human LAP-TGFB1 Fc fusion; assay: BLI off-rate screen
# Protocol: (§1) The Fab mutants including a positive control, 20E6 Fab, and a negative control Fab (Molecular Innovations, catalog HU-FAB-4510) were diluted to 200 nM in assay buffer and loaded to FAB2G sensors for 180 seconds followed by a one-hour incubation at room temperature in assay buffer to equilibrate the tips. The Fab loaded sensors were assessed for binding with 100 nM human LAP-TGFβ for 180 seconds followed by a 180 second dissociation phase in assay buffer on a ForteBio HTX (software version 9.0.0.66). Non-specific binding to the negative control Fab was subtracted and the binding sensorgrams were aligned to the start of the association phase on the X and Y axis. The Fab binding was fit with the 1:1 binding model, dissociation phase only, with local fitting using ForteBio Data Analysis 9.0 software.
# Twenty-three variants containing a single tyrosine substitution in the light chain CDRs (at one of amino acid positions 24-31, 33, 34, 51-56, and 89-95 according to Kabat numbering scheme) and 21 similar heavy chain CDR variants (at amino acids positions 28-31, 33-35, 50-58 including 52a, 95, 96, 98, and 99 according to Kabat numbering scheme) were generated according to FIG. 1 and listed in Table 6 and their interactions with human LAP-TGFb1 were analyzed by ForteBio interferometry. […] In those sequences the VL is correct, even though these sequences are from the heavy chain. Thus, the VL_X ##Y refers to the position of the tyrosine mutation within the antibody, regardless of whether the sequence is a heavy or light chain.
# [4] = target: T2, human LAP-TGFB3 Fc fusion (human); assay: SPR
# T2 construct: also called human LAP-TGFβ3; LAP-TGFβ isoform 3
# Protocol: (§2) A Series S CM4 sensor chip (GE Healthcare, catalog BR100534) was immobilized with an anti-human Fc capture antibody following the kit protocol (GE Healthcare, catalog BR100839) on a Biacore T200 instrument with 1× HBS-EP+ (Teknova, catalog H8022). […] Binding specificity between human LAP-TGFβ isoforms 2 and 3 and the tyrosine scanning double mutants were performed in 1× HEPES-buffered saline with EDTA and surfactant (HBS)-EP)+with 0.1 mg/mL BSA at 25° C. […] The binding data were double referenced by subtraction of signal from a reference (capture surface only) flow cell and the negative control 0 nM Fab injection. Binding rate constants were determined by fitting the data with a 1:1 binding model (GE Healthcare Biacore T200 Evaluation software 3.0).
# [5] = target: T3, human LAP-TGFB2 Fc fusion (human); assay: SPR
# T3 construct: also called human LAP-TGFβ2; LAP-TGFβ isoform 2
# Protocol: as §2
# [6] = target: T1, human LAP-TGFB1 Fc fusion; assay: SPR
# [7] = target: T1, human LAP-TGFB1 Fc fusion; assay: BLI off-rate screen; remark: listed apart in the source
# Protocol: as §1
# [8] = target: T1, human LAP-TGFB1 Fc fusion; assay: SPR pH 6.0, antigen-Fc captured, Fab analyte
# Protocol: A Series S CM4 sensor chip (Cytiva, catalog BR100534) was immobilized with an anti-human Fc capture antibody following the kit protocol (Cytiva, catalog BR100839) on a Biacore T200 instrument with 1× HBS-EP+ (Teknova, catalog H8022). […] The binding data were double referenced by subtraction of signal from a reference (capture surface only) flow cell and the 0 nM Fab injection. Binding rate constants were determined by fitting the data with a 1:1 binding model (Cytiva Biacore T200 Evaluation software 3.0).
# [9] = target: T1, human LAP-TGFB1 Fc fusion; assay: SPR, antigen-Fc captured, Fab analyte
# [10] = target: T1, human LAP-TGFB1 Fc fusion; assay: SPR, antigen-Fc captured, Fab analyte; remark: listed apart in the source
# From the text: (§3) This Example describes the isoform specificity of the yeast display mutants to bind to human LAP-TGFβ isoforms 1, 2, and 3 using surface plasmon resonance. A Series S CM4 sensor chip (GE Healthcare, catalog BR100534) was immobilized with an anti-human Fc capture antibody following the kit protocol (GE Healthcare, catalog BR100839) on a Biacore T200 instrument with 1× HBS-EP+ (Teknova, catalog H8022). […] Binding specificity experiments between human LAP-TGFβ isoforms 2 and 3 and yeast display mutants were performed in 1× HBS-EP+ with 0.1 mg/mL BSA at 25° C. Approximately 20-40 RU amounts of human LAP-TGFβ2 and 3 were captured to the anti-human Fc surface followed by injection of 1000 nM Fab including a negative control 0 nM Fab. The binding data were double referenced by subtraction of signal from a reference (capture surface only) flow cell and the negative control 0 nM Fab injection. Binding rate constants were determined by fitting the data with a 1:1 binding model (GE Healthcare Biacore T200 Evaluation software 3.0).
# [11] = target: T4, human LAP-TGFβ1 (construct not stated) (human, UniProt P01137 30-390); assay: KinExA, Fab as constant binding partner
# T4 construct: also called human LAP-TGFβ isoform 1; titrant
# Protocol: An orthogonal kinetic exclusion assay (KinExA) method was used in this study to measure the affinity of an affinity-matured anti-LAP-TGF β1 Fab 69BJN (referred to as the constant binding partner, CBP) and human LAP-TGFβ1 (referred to as the titrant). […] Two equilibrium experiments were prepared in assay buffer (1× PBS, 1 mg/mL BSA, and 0.05% NaN₃) with 5 pM or 100 pM of 69BJN as CBP followed by mixing and equilibrating with 1:10 serially diluted human LAP-TGFβ1 from 10 nM to 1 pM including a negative control 0 nM. The KinExA method was performed as follows: PMMA beads were loaded into the flow cell, a single concentration of titrant human LAP-TGFβ1 at equilibrium with 69BJN CBP was flowed over the flow cell, free CBP bound by PMMA beads was detected with rabbit anti-human IgG, F(ab′)₂ fragment specific-647 conjugate (Jackson Immunoresearch, catalog 309-005-006). This method was repeated in duplicate over the entire concentration series for each of the two different equilibrium series. The binding signals were analyzed with KinExA Pro software (version 4.4.26) where the free CBP binding signals were converted into percent free response and plotted against the titrant concentration series. The equilibrium KD was determined by using the titrant concentration as a reference and calculating percent activity of the ligand (CBP).
# [12] = target: T2, human LAP-TGFB3 Fc fusion; assay: SPR; remark: listed apart in the source
# From the text: as §3
# [13] = target: T3, human LAP-TGFB2 Fc fusion; assay: SPR; remark: listed apart in the source
# From the text: as §3
# T1 sequence (chain, as listed by the source limits assumed): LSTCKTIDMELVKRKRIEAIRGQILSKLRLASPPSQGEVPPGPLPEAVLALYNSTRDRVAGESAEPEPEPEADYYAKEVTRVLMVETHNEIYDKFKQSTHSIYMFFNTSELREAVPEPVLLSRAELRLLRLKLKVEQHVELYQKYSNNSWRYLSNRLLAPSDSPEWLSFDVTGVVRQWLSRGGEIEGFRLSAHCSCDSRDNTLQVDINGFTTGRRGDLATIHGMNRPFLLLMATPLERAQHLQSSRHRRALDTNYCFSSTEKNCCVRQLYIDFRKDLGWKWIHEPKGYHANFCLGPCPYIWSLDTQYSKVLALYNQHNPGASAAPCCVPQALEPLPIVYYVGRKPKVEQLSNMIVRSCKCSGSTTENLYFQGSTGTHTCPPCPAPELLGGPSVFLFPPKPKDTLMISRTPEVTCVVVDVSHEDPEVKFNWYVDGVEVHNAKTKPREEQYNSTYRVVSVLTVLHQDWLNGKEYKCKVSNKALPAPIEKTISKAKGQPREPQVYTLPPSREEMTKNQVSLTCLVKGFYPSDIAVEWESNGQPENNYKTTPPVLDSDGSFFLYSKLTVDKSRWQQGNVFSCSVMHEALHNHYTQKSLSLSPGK
# T3 sequence (chain, as listed by the source limits assumed): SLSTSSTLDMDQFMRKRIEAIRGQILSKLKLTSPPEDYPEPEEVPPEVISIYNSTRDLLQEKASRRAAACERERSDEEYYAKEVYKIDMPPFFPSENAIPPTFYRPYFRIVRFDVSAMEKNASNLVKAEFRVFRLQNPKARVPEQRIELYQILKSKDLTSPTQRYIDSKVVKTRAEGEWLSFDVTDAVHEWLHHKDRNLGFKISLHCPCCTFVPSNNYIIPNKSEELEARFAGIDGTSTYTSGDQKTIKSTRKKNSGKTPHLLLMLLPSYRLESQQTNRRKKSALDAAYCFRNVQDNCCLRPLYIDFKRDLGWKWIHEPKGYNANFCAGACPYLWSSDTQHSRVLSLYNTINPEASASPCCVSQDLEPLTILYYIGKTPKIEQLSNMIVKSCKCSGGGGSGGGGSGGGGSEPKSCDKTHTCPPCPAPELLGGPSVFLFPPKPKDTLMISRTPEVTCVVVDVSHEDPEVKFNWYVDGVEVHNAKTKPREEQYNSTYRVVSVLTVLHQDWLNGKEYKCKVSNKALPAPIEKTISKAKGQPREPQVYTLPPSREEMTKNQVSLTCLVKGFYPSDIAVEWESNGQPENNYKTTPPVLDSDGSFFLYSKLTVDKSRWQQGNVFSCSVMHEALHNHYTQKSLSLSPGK
# T2 sequence (chain, as listed by the source limits assumed): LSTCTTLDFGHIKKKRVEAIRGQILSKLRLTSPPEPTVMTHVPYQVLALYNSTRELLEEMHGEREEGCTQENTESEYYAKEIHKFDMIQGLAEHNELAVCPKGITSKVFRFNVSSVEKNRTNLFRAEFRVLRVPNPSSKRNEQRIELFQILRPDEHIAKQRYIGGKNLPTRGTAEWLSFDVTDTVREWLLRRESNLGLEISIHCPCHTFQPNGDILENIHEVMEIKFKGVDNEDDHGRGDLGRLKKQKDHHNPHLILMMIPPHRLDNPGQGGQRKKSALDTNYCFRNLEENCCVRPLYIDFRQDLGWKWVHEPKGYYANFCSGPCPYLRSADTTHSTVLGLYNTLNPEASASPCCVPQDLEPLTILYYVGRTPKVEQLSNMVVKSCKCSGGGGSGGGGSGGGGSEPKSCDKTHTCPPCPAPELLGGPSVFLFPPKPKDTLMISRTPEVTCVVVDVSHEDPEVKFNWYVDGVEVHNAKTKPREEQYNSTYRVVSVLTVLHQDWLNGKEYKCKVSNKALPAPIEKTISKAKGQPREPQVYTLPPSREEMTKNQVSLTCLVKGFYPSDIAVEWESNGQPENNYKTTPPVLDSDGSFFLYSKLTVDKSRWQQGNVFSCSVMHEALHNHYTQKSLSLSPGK
# T4 sequence (P01137 30-390 limits assumed): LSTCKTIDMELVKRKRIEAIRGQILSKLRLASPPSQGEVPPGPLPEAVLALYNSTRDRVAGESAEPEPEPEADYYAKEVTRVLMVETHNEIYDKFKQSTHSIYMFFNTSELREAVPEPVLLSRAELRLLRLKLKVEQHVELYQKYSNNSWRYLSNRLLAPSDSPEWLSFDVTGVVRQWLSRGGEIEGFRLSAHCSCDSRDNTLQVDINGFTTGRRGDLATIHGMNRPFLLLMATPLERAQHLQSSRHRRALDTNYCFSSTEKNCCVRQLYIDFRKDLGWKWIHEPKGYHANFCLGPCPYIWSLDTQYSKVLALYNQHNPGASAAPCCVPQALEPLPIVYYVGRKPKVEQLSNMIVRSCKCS
binder,measurement,setting,value
B1,Fold improvement in KD,[1],1 fold
same,Kd,[1],58.5 nM
same,koff,[1],0.0769 s⁻¹
same,kon,[1],1.32e+06 M⁻¹ s⁻¹
same,Kd,[2],58.5 nM
same,koff,[2],0.0769 s⁻¹
same,kon,[2],1.32e+06 M⁻¹ s⁻¹
same,koff,[3],0.0468 s⁻¹ and 0.0381 s⁻¹
same,binding result,[4],no binding (tested: 1000 nM Fab)
same,binding result,[5],no binding (tested: 1000 nM Fab)
same,Fold change in KD from pH 7.4 to pH 6,[6],1.8 fold
same,koff,[7],0.0468 s⁻¹ and 0.0381 s⁻¹
same,Kd,[8],103 nM
same,koff,[8],0.096 s⁻¹
same,kon,[8],934000 M⁻¹ s⁻¹
same,Fold improvement in KD,[9],1 fold
same,Kd,[9],81.2 nM
same,koff,[9],0.103 s⁻¹
same,kon,[9],1.45e+06 M⁻¹ s⁻¹
same,Fold improvement in KD,[10],1 fold
same,Kd,[10],79.9 nM
same,koff,[10],0.0769 s⁻¹
same,kon,[10],960000 M⁻¹ s⁻¹
B2,Kd,[11],0.028 nM
same,Fold improvement in KD,[10],695 fold
same,Kd,[10],0.115 nM
same,koff,[10],0.000488 s⁻¹
same,kon,[10],4.25e+06 M⁻¹ s⁻¹
same,binding result,[12],no binding (tested: 1000 nM Fab)
same,binding result,[13],no binding (tested: 1000 nM Fab)
